The results in this text go back to article PMC5755574.

This experiment deals with Alcaligenes xylosoxidans copper nitrite reductase (Alcaligenes xylosoxidans). Description: crystal structure; as-isolated AxNiR crystals, space group R3, one monomer in the asymmetric unit, trimer formed by crystal symmetry; SRX resting state at 1.6 Å (BL41XU, SPring-8, cryo); the SF-ROX structure (SACLA XFEL, 100 K, 1.6 Å) from the same batch of crystals has near-identical global architecture.

Take “Alcaligenes xylosoxidans copper nitrite reductase (enzyme)”: the stoichiometry N (commonly a count of units in the complex or per binding partner) is 3.
